T1: Fc fused hCD132 (monovalent) (human, UniProt P31785 23-262, limits assumed)
T1 construct: described only as Fc fused, monovalent
T1 sequence (looked up): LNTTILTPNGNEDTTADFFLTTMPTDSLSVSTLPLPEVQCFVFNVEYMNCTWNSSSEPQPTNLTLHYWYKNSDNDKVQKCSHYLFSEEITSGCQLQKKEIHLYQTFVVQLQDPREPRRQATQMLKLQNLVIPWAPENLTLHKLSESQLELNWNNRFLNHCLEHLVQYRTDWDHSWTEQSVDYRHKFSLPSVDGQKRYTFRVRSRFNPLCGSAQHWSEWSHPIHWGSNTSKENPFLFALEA

T2: Fc fused hCD122 (monovalent) (human, UniProt P14784 27-240, limits assumed)
T2 construct: described only as Fc fused, monovalent
T2 sequence (looked up): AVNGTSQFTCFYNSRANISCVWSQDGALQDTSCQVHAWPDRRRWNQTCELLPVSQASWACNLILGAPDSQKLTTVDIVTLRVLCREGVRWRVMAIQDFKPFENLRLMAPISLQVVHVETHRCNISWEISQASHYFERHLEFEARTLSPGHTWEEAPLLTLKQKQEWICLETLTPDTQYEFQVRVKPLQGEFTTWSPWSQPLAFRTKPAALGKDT

B1: DR736(DR588-DR231) (bispecific antibody)
chain: QVQLQESGGGSVQVGGSLKLSCAASGYTYSSYYCMGWFRQAPGKEREGVAAIDSDGSTSYADSVKGRFTISQDDAKNTLYLQMNSLKPEDTAMYYCAASYEVVDCYPSGYGQDYWGKGTQVTVSSGGGSQVQLQESGGGSVQAGGSLRLSCTASGFTFDDREMNWYRQAPGNECELVSTISSDGSTYYADSVKGRFTISQDNAKNTVYLQMDSVKPEDTAVYYCAADFMIAIQAPGAGCWGQGTQVTVSSASHHHHHH
notes: DR588 VHH - GGGS - DR231 VHH - ASHHHHHH; also called anti-IL2Rb/g VHH2 DR736; non-PEGylated DR736
B2: DR638(DR229-DR587) (bispecific antibody)
chain: QVQLQESGGGLVQPGGSLRLSCTASGFSFSSYPMTWARQAPGKGLEWVSTIASDGGSTAYAASVEGRFTISRDNAKSTLYLQLNSLKTEDTAMYYCTKGYGDGTPAPGQGTQVTVSSGGGSQVQLQESGGGSVQVGGSLRLSCATSGDTKSIRCMGWFRQTPGKEREGIAAIDREGFATYADSVYDRFTIAQDNAQNTLYLEMNALKPEDTAMYYCAAQNMCRVVRGAMTGVDYWGKGTQVTVSSASHHHHHH
notes: DR229 VHH - GGGS - DR587 VHH - ASHHHHHH; also called anti-IL2Rb/g VHH2 DR638; non-PEGylated DR638
B3: DR638-PEG40K2a (bispecific antibody)
chain: B2 chain
modifications: one 40 KDa branched polyethylene glycol (mono-PEGylated, coupled with sodium cyanoborohydride at pH ~6.3; residue not stated)
notes: also called PEGylated DR638

Some results are limits rather than exact numbers.

The first test addresses T1, Fc fused hCD132 (monovalent). The test can be described thus: SPR, VHH dimer in the mobile phase, Fc fused hCD132 immobilized. On the procedure: (§1) The affinity of the non-PEGylated and the PEGylated forms of DR638 and DR736 prepared in substantial accordance with the foregoing were evaluated by surface plasmon resonance with the VHH dimer molecule in the mobile phase and an immobilized Fc fused hCD122 and hCD132 monovalent and bivalent hCD122/hCD132 Fc construct.
Broadly, the Kd is a measure of binding affinity in units of concentration. High values mean weaker binding, low ones tighter binding. For B1, the dissociation constant (Kd) is roughly 6.5 nM.
On to B2, for which the Kd was roughly 0.5 nM.
Molecule B3 gave a Kd of roughly 16.3 nM.

In another test the target is T2, Fc fused hCD122 (monovalent). As to the kind of experiment: SPR, VHH dimer in the mobile phase, Fc fused hCD122 immobilized. As for the experimental part:
as §1
Background: In SPR one partner is held on a chip, and binding of the other changes the refractive index at the surface.
B1 yielded a dissociation constant (Kd) of roughly 21 nM.
Still for that read-out and setting: then B2, with less than 0.5 nM; and B3, with roughly 1.1 nM.

Values taken from US20250333520A1 (SYNTHEKINE, published 2025).
